Data from the nanobody polyreactivity screen of Harvey et al. (2022).

Experiment: yeast display, Sf9 membrane polyspecificity reagent, FACS + sequencing; frameworks hold sequencing errors
Summary of the method: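 Using colony PCR, genes from sorted yeast display clones were amplified, then sequenced on MiSeq at 2 × 250 and filtered by CDR length. The clones had been stained with 10% biotinylated, detergent-solubilized Sf9 membrane reagent for 1 hour at 4 °C and sorted by FACS into low and high (top ~1%) gates on anti-HA and streptavidin fluorescence. Polyreactivity labels come from the gate of origin.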

Row | Sequence | polyreactivity (PSR sort gate)
1 | QVQLVESGGGLVQAGGSLRLSCAASGITFWYYAMGWYRQAPGKERELVAAINWSGGSTYYADSVKGRFTISRDNAKNTVYLQMNSLKPEDTAVYYCAAEFGLWPYEYGYWGQGTQVTVSS | high polyreactivity
2 | QVQLVESGGVLVQAGGSLRLSCAASGRTFYYYAMGWYRQAPGKERELVASISWDGGNTYYADSVKGRFTISRDTAKNTVYLHMNSLKPEDTAVYYCNRRFYHKDDYWGQGTQVTVSS | high polyreactivity
3 | LVQLVESGGGLVQAGGSLRLSCAASGSTFIPYAMGWYRQAPGKERELVAAIRGGDGSTYYADSVKGRFTISRDNAKNTVYLQMNSLKPEDTAVYYCAADTVITAYFYRFWRYNYWGQGTQVTVSS | low polyreactivity
4 | QVQLVESGGGLVQAGGSLRLSCAASGSILSFNAMGWYRQAPGKERELVAAICRGGSTYYADSVKGRFTISRDNAKNTVYLQMNSLKPEDTAVYYCAVQLRRHVDMDYWGQGTQVTVSS | high polyreactivity
5 | QVQLVESGGGLVQAGGSLRLSCAASGSIFGGYAMGWYRQAPGKERELVAAITSSGGRTYYADSVKGRFTISRDNAKNTVYLQMNSLKPEDTAVYYCAASPNYYYYYPMYYWGQGTQVTVSS | high polyreactivity
6 | QVQLVESGGGLVQAGGSLRLSCAASGSTFRWYAMGWYRQAPGKERELVAAITWSGGRTYYADSVKGRFTISRDNAKNTVYLQMNSLKPEDTAVYYCAADRGPEHWYDYYYWGQGTQVTVSS | high polyreactivity
7 | QVQLVESVGGLVQAGGSLRLSCAGSGFTFLYYAMGWYRQAPGKERELVDTISKSGGSTYYADSVKGRFTISRDNAKNTDYLQMNSLKPEDTAVDYFAAVGPYRWYDYWGQGTQVTVSS | high polyreactivity
8 | QVQLVESGRGLVQAGGSLRLSCAASGSIFTTNAMGWYRQAPGKERELVAAISKSGASTYYADSVKGRVTISRDNAKNTVYLQMNSLKPEDTAVYYCAAGLRYTGRFRFYYWGQGTQVTVSS | high polyreactivity
9 | QVQLVESGGGLVQAGGSLRLSCAASGSTFDYYARGGYRQAPGKERELVAAISRTGGRTYYADSVKGRFTISRDNAKNTVNLQMNSLKPEDTAVYNCNAVTRIGGGDYDYWGQGTQVTVSS | low polyreactivity
10 | QVQLVESGGGLVQAGGSLRLSCAASGSIFSYYAMGWYRQAPGKERELVAAISVSGGRTYYADSVKGRFTISRDNAKNTVYLQMNSLKPEDTAVYYCATRIRSYYYWGQGTQVTVSS | high polyreactivity
11 | QVQLVESGGGLVQAGGSLRLSCAASGSIFTTYAMGWYIQAPGKERELVAVISRRGGSTYYADSVKGRFTISRDNAKNTDYLQMNSLKPEDTAVYFCNAAYVWYRIFVRRDYWGQGTQVTVSS | high polyreactivity
12 | QVQLVESGGGLVQAGGSLRLSFAASGSIFNYNAMGWYRQAPGKERELVAAITYADSVKGRFTISRDNAKNTVYLQMNSLKPEDTAVYHCNTHYVPSFRFDYWGQGTQVTVSS | low polyreactivity
13 | QVQLVESGGGLVQAGGSLRLSCAASGFTFRAYTMGWYRQAPGKERELVAAITYSGGRTYYADSVKGRFTISRDNAKNTVYLQMNSLKPEDTAVYYCAKRGWALSEYYYWGQGTQVTVSS | high polyreactivity
14 | QVQLVETGGGLVQAGGSLRLSCAASGSIFTYYAMGWSRQAPGKERELVAAITSGGSTYYADSVKGRFTISRDNAKNTVYLQMNSLKPEDTAVYYCNAVTFYRYYTGKYDYWGQGTQVTVSS | high polyreactivity
15 | QVQLVESGGGLVQAGGSLRLSCAASGRTFRANDMGWYRQAPGKERELVAAISQSGGSTYYADSVKGRFTISRDNAKNTVYFQMNSLKPEDTAVYDCNALGRISNHTLYDYWGQGTQVTVSS | low polyreactivity
16 | QVQLVESGGGLVQEGGSLRLICAASGRILRDNAMGWYRQAPGKERELVAAISVSTVSTYYADSVKGLFTISRDNANNTVYFHMNSLKPEDTAVYYCNADATDSYPEKDEHDSWGQGTQVTVSS | low polyreactivity

Row | Sequence | polyreactivity (PSR sort gate)
17 | QVQLVESGGGLVQAGGSLRLSCAASGSIFGWNTMGWYRQAPGKERELVAAITWTGGRTYYADSVKGRFTISRDNAKNTVYLQMNSLKPEDTAVYYCNALRVIRGGIKGDYWGQGTQVTVSS | high polyreactivity
18 | QVQLVESGGGLVQAGGSLRLSCAASGRIFTTYAMGWYRQAPGKERELVAAISRSGGSTYYADSVKGRFTISRDNAKNTVYLQMNSLKPEDTAVYYCAAVPTSNSFLSSFYYWGQGTQVTVSS | high polyreactivity
19 | QVQLVESGVGLVQAGGSLRLSCSASGIIFDDYAMGWYRQAPGKERELVAAISRRGGSTYYADSVKGRFTISRDNAKNTVYLQMNSLKPEDTAVYYCAATTRTYSLYNYWGQGTHVTVSS | high polyreactivity
20 | QVQLVESGGGLVQAGGSLRLSCAASGSTFTGNAMGWSRQAPGKERELVAAITDRGGSTYADSVKGRFTISRDNAKNTVYLQMNSLKPEDSAVYYCATRRDLHDRYEYDYWGQGTQVTVSS | low polyreactivity
21 | QVQLVESGGGLVQAGGSLRLSCAASGSTFPVNTMGWYRQAPGKERELVAAISSDDNTNYADSVKGRFTISRDNAKNTVYLQMNSLKPEDTEVYYCAVKGHPAYVEVPPRYAWEFDYWGQGTQVTVSS | low polyreactivity
22 | QVQLVESGGGLVQAGGSLRLSCAASGSIFSINAMGWYRQAPGKERELVAVISWIGGNTYYADSVKGRFTISRDNAKNTVYLKMNSLKPEDTAVYYCAVATGPVSYRRYYCGQGTQVTVSS | high polyreactivity
23 | QVQLVESGGGLVQAGGSLLLSCAASGFIFGPYALGWYRQAPGKERELVAAITWRGGRTYYADSVKGRFTISRDNAKNTVYLQMNSLKPEDTAVYYCAADYPYAMDYWGQGTQVTVSS | high polyreactivity
24 | QVQLVESGGGLVQAGGSLRLSCAASGIIFTGNAMGWYRQAPGKERELVAAITSGDTTNYADSVKGRFTISRDNAKNTVYLQMNSLKPEDTAVYFCAIELQVRQAGDYWGQGTQVTVSS | low polyreactivity
25 | QVHLVESGGGLVQAGGSLRLSCAASGITFDLYAMGWYRQAPGKERELVAASTYYADSVKGRFTISRDNAKNTVYLQMNSLKPEDTAVYYCNTREPVTYDYWGQGTQVTVSS | high polyreactivity
26 | QVQLEESGGGLVQAGRSLRLSCAASGRIFWRYVMGWYRQAPGKERELVAAINRNGDNTSYADSVKGRFTISRDTAKNTVYLQMNSLKPEHTEVHYCNADWWWGYGYWGQGTQVSVSS | low polyreactivity
27 | QVHLVESGGGLVQAGGSLRLSCAASGRIFQRNVMGWYRQAPGKERELVASITGGGTTNYADSVKGRFTISRDNAKNTVYLQMNSLKPEDTAVYYCAKGYGASNDPGYVRKRYGYWGQGTQVTVSS | low polyreactivity
28 | QVQLVESGGGLVQAGGRLRLSCAASGSTFKSYVMGGSRQAPGKERELVAAISSGDSTYYADSVKGRFTISRDNAKNTVNLQMNSLKPEDTAVYYCAADPGYTVEPWEDDYWGQGTQVTVSS | low polyreactivity
29 | QVQLVESGGGLVQAGGSLRLSCAASGRTFKDYAMGWYRQAPGKERELVAAISWSGGDTYYADSVKGRFTISRDNAKNTVYLQMNSLKPEDTAVYYCNADPSGVFFYSLEFDYWGQGTQVTVSS | low polyreactivity
30 | QVQLVESGGGLVQAGGSLRLSCAASGSTFTGYAMGWYRQAPGKERELVAGITGSGGSTYYADSVKGRFTISRDNATNTVYLQMNSLKPEDTAVFYCAAAFWYQYVWLDYYWGQGTQVTVSS | low polyreactivity
31 | QVQLVESGGGLVQAGGSLRLSCAASGSIFYGNVMGWYRQAPGKERELVAAISSSGGSTYYADSVKGRFTISRDTAKNTVYLQMNSLKPEDTAVYYCAAYWWSRVVRGSRYDYWGQGTQVTVSS | low polyreactivity
32 | QVQLVESGGGLVQAGGSLRLSCAASGFTFYTYAMGWYRQEPGKEREMVATISGSGGDTNYADSVKGRFTISRDNAKNTGYLQMDSLKPEDTAVYYCAAETQSVWSGFYYWGQGTQVTVSS | low polyreactivity
